The source of these data is paper PMC2212970.

Read-outs that look alike come from different tables or passages of the source.

Common to all, as to test: EMSA
(A gel shift assay detects complexes by their altered migration in electrophoresis.)

For data set [1], the target named is T1, SLPI (secretory leucoprotease inhibitor) (UniProt P03973 26-132).
Data set [2] deals with T1, SLPI (secretory leucoprotease inhibitor). This is another data set of the same source.
For a further data set, the target named is NF-kB p65 (UniProt Q04206 1-551).
Sequence of NF-kB p65 (Q04206 whole entry): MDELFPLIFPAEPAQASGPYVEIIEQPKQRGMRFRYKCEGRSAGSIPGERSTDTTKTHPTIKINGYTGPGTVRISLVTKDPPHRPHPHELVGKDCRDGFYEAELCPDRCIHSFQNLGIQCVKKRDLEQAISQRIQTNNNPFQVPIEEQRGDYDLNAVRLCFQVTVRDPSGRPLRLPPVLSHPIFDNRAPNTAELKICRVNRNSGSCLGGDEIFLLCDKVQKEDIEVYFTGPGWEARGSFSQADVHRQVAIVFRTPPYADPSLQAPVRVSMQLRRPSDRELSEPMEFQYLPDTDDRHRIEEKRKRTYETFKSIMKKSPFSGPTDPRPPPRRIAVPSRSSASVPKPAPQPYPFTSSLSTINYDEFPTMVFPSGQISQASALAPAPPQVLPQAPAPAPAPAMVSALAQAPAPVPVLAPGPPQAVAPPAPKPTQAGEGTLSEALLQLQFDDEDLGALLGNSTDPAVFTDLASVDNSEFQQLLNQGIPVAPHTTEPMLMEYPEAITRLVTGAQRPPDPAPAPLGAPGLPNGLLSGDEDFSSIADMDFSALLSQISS

T1 sequence (P03973 26-132): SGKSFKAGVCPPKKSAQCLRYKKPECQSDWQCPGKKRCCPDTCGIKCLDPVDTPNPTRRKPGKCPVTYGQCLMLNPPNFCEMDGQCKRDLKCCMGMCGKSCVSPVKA

B1: AP-1 consensus (dsDNA)
DNA 1: CGCTTGATGAGTCAGCCGGAA
DNA 2: TTCCGGCTGACTCATCAAGCG
Take B1: the binding result in data set [1] is “binds”.

B2: GATA-1 consensus (dsDNA)
DNA 1: AATTGGACCGTATCTCCC
DNA 2: GGGAGATACGGTCCAATT
Turning to B2, the binding result in data set [1] is “no binding”.

B3: NF-kB consensus WT (dsDNA)
DNA 1: AGTTGAGGGGACTTTCCCAGGC
DNA 2: GCCTGGGAAAGTCCCCTCAACT
As to B3, the binding result (in data set [2]; with NF-kB p65) was “binds” in each case.

B4: CREB consensus (dsDNA)
DNA 1: AGAGATTGCCTGACGTCAGACAGCTAG
DNA 2: CTAGCTGTCTGACGTCAGGCAATCTCT
With B4, the binding result in data set [1] is on record as “no binding”.

B5: Sp-1 consensus (dsDNA)
DNA 1: ATTCGATCGGGCGGGGCGAG
DNA 2: CTCGCCCCGCCCGATCGAAT
As for B5, the binding result in data set [1] was “no binding”.
